Assay results published in patent US20110124560A1 (University of Pennsylvania, published 2011).

B1: His-tagged full length FOXP3a (other, human, UniProt Q9BZS1 1-431, looked up)
chain: MPNPRPGKPSAPSLALGPSPGASPSWRAAPKASDLLGARGPGGTFQGRDLRGGAHASSSSLNPMPPSQLQLPTLPLVMVAPSGARLGPLPHLQALLQDRPHFMHQLSTVDAHARTPVLQVHPLESPAMISLTPPTTATGVFSLKARPGLPPGINVASLEWVSREPALLCTFPNPSAPRKDSTLSAVPQSSYPLLANGVCKWPGCEKVFEEPEDFLKHCQADHLLDEKGRAQCLLQREMVQSLEQQLVLEKEKLSAMQAHLAGKMALTKASSVASSDKGSCCIVAAGSQGPVVPAWSGPREAPDSLFAVRRHLWGSHGNSTFPEFLHNMDYFKFHNMRPPFTYATLIRWAILEAPEKQRTLNEIYHWFTRMFAFFRNHPATWKNAIRHNLSLHKCFVRVESEKGAVWTVDELEFRKKRSQRPSRCSNPTPGP
notes: Expressed in Sf9 insect cells, purified by Ni-NTA; also called Full length FOXP3a (the large isoform) with a 6x His tag; purified His-tagged FOXP3a; not shown: 6x His tag
B2: FOXP3 delK250 mutant (other, human, UniProt Q9BZS1 1-431, looked up, not shown: small tags and cut ends)
chain: MPNPRPGKPSAPSLALGPSPGASPSWRAAPKASDLLGARGPGGTFQGRDLRGGAHASSSSLNPMPPSQLQLPTLPLVMVAPSGARLGPLPHLQALLQDRPHFMHQLSTVDAHARTPVLQVHPLESPAMISLTPPTTATGVFSLKARPGLPPGINVASLEWVSREPALLCTFPNPSAPRKDSTLSAVPQSSYPLLANGVCKWPGCEKVFEEPEDFLKHCQADHLLDEKGRAQCLLQREMVQSLEQQLVLEEKLSAMQAHLAGKMALTKASSVASSDKGSCCIVAAGSQGPVVPAWSGPREAPDSLFAVRRHLWGSHGNSTFPEFLHNMDYFKFHNMRPPFTYATLIRWAILEAPEKQRTLNEIYHWFTRMFAFFRNHPATWKNAIRHNLSLHKCFVRVESEKGAVWTVDELEFRKKRSQRPSRCSNPTPGP
notes: Deletion, not a substitution: K250 is removed; also called myc-delK250 FOXP3a; FOXP3 K250 deletion mutant

Columns and labels:
[1] = biological target: the molecule itself; experiment: gel filtration of purified protein, fractions immunoblotted with anti-FOXP3 221D (self-association)
Text: FIG. 2A is an image of an immunoblot and a corresponding graph of the relative amounts of FOXP3a detected by the immunoblot. To generate the immunoblot, purified His-tagged FOXP3a was size fractionated by gel filtration, and the fractions were subject to immunoblotting with anti-FOXP3 antibody. ImageJ software (http://rsb.info.nih.gov/ij/) was used for relative quantification of the bands.
Full length FOXP3a (the large isoform) with a 6× His tag was expressed in Sf9 insect cells and purified by Ni-NTA column. The purified His-tagged full length FOXP3a was size fractionated, followed by SDS-PAGE and immunoblotting of the individual fractions with anti-FOXP3 mAb 221D. Purified full length FOXP3a eluted from the gel filtration column as a dominant mixture of monomers, dimers, tetramers, and a detectable amount of oligomeric species (FIG. 2A).

[2] = biological target: the molecule itself; experiment: co-immunoprecipitation from transfected HEK293T cells
Text: Full-length FOXP3 E251 and K250 deletion mutants were created by site-directed mutagenesis and subcloned into mammalian expression vectors containing either myc or HA epitope tags at the N-terminus. HEK293T cells were transfected with the myc-tagged wild type FOXP3, myc-tagged FOXP3-delE251, HA-tagged wild type FOXP3, or HA-tagged FOXP3-delE251 vectors as indicated (FIG. 2C). The HA-tagged wild type FOXP3 species was able to homo-associate with the myc-tagged wild type FOXP3, but not with the myc-tagged delE251 mutant, and vice versa (FIG. 2C). […] Thus the leucine zipper domain is essential for FOXP3 homo-association.

Row | Protein | binding result [1] | binding result [2]
1 | B1 | binds | –
2 | B2 | – | no binding
